Paper PMC7064771, “Repurposed Drugs That Block the Gonococcus-Complement Receptor 3 Interaction Can Prevent and Cure Gonococcal Infection of Primary Human Cervical Epithelial Cells” (mBio, 2020)

Legend:
[1] = target: recombinant human CR3 I-domain (I-domain of CD11b) (human); test: SPR
[2] = target: recombinant human complement receptor 3 (integrin αMβ2) (human) (UniProt P11215); test: SPR

Chain of N. gonorrhoeae MS11 wild-type pilin (PilE) modified with the Gal(α1-3)diNAcBac disaccharide (P02974 8-165 limits assumed): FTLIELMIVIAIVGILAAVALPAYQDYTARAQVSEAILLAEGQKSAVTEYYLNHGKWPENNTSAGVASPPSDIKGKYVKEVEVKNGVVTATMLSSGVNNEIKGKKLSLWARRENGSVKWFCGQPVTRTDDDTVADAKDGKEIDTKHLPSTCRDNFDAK

Substance “N. gonorrhoeae MS11 wild-type pilin (PilE) modified with the Gal(α1-3)diNAcBac disaccharide (from UniProt P02974 8-165) (natural protein)” has a Kd [1] of 349 nM and a Kd [2] of 907 nM.
